Test results taken from US20240254232A1 (SUNSHINE GUOJIAN PHARMACEUTICAL SHANGHAI, published 2024).

T1: LAG-3 extracellular segment recombinant protein with polyhistidine tag (LAG3-His) (UniProt P18627 23-450, limits assumed)
T1 construct: extracellular domain
T1 sequence (looked up): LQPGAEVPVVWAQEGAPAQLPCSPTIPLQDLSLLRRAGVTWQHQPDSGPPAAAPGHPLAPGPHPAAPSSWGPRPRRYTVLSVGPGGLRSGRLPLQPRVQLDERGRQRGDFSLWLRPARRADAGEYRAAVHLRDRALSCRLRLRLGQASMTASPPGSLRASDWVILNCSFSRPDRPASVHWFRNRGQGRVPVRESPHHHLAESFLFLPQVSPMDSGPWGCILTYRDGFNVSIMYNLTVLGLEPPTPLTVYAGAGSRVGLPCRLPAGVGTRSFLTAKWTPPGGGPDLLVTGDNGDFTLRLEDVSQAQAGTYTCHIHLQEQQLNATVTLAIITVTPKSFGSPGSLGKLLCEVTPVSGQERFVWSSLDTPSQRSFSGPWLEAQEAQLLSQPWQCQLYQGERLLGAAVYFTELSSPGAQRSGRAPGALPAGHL


What was measured:
[1] = molecular target: T2, PD-1 extracellular segment recombinant protein with polyhistidine tag (PD1-His) (UniProt Q15116 25-170, limits assumed); experiment: ELISA, PD1-His coated at 20 ng/well, HRP anti-human Fc detection
T2 construct: extracellular domain
Experimental: (§1) The ELISA detection method used in the following embodiments is described as follows: the corresponding recombinant protein is coated on the microplate, and the microplate is closed with PBST containing 1% bovine serum albumin (PBST is a phosphate buffer containing 0.05% Tween-20). The antibody to be tested was sequentially diluted and then transferred to the above recombinant protein-coated microplates, incubated at room temperature for half an hour and then washed, appropriately diluted HRP (Horseradish Peroxidase)-labeled goat anti-human antibody (Fc specific, purchased from Sigma) was incubated at room temperature for half an hour and then washed, and 100 μl of TMB (3,3′,5,5′-Tetramethylbenzidine) was added to each well.
(§2) Hereby, HER2 extracellular segment recombinant protein (referred to as HER2-His, purchased from Sino Biological Inc.), PD-1 extracellular segment recombinant protein (referred to as PD1-His, purchased from Sino Biological Inc.), and LAG-3 extracellular segment recombinant protein (referred to as LAG3-His, purchased from ACROBiosystems) with polyhistidine tags were coated on microplates at concentrations of 20 ng/well, 20 ng/well, and 10 ng/well, respectively.

[2] = molecular target: T1, LAG-3 extracellular segment recombinant …; experiment: ELISA, LAG3-His coated at 10 ng/well, HRP anti-human Fc detection
Experimental: as §1, §2

[3] = molecular target: T3, HER2 extracellular segment recombinant protein with polyhistidine tag (HER2-His) (UniProt P04626 23-652, limits assumed); experiment: ELISA, HER2-His coated at 20 ng/well, HRP anti-human Fc detection
T3 construct: extracellular domain
Experimental: as §1, §2

T2 sequence (Q15116 25-170 limits assumed): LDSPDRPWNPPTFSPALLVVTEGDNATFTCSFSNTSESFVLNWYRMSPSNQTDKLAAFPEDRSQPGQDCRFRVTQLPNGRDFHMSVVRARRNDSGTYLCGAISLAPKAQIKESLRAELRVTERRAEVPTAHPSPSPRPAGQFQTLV

EC50 [1] [nM] | EC50 [2] [nM] | EC50 [3] [nM] | Binder
0.125 | 0.26 | – | 609-302-134-IgG4, hexavalent trispecific antibody against PD-1, HER-2 and LAG-3 (antibody) heavy: not shown light 1: not shown light 2: DIQMTQSPSSLSASVGDRVTITCRASQDIGSRLNWLQQKPGKSIKRLIYATSSLESGVPSRFSGSRSGSDYTLTISSLQPEDFATYYCLQSGSSPPTFGQGTKVEIKRTVAAPSVFIFPPSDEQLKSGTASVVCLLNNFYPREAKVQWKVDNALQSGNSQESVTEQDSKDSTYSLSSTLTLSKADYEKHKVYACEVTHQGLSSPVTKSFNRGEC
0.0911 | 0.226 | 0.355 | 609-302-(44CC)-134-IgG4, hexavalent trispecific antibody against PD-1, HER-2 and LAG-3 (antibody) heavy: not shown light 1: not shown light 2: DIQMTQSPSSLSASVGDRVTITCRASQDIGSRLNWLQQKPGKSIKRLIYATSSLESGVPSRFSGSRSGSDYTLTISSLQPEDFATYYCLQSGSSPPTFGQGTKVEIKRTVAAPSVFIFPPSDEQLKSGTASVVCLLNNFYPREAKVQWKVDNALQSGNSQESVTEQDSKDSTYSLSSTLTLSKADYEKHKVYACEVTHQGLSSPVTKSFNRGEC
0.104 | 0.286 | 0.42 | 609-302-(105CC)-134-IgG4, hexavalent trispecific antibody against PD-1, HER-2 and LAG-3 (antibody) heavy: not shown light 1: not shown light 2: DIQMTQSPSSLSASVGDRVTITCRASQDIGSRLNWLQQKPGKSIKRLIYATSSLESGVPSRFSGSRSGSDYTLTISSLQPEDFATYYCLQSGSSPPTFGQGTKVEIKRTVAAPSVFIFPPSDEQLKSGTASVVCLLNNFYPREAKVQWKVDNALQSGNSQESVTEQDSKDSTYSLSSTLTLSKADYEKHKVYACEVTHQGLSSPVTKSFNRGEC
– | 0.122 | – | 134-IgG4 (134 Hu IgG4-C91S), humanized monoclonal antibody against human LAG-3 (antibody, V domains shown, also called Anti-LAG-3 antibody) VH: QVQLVQSGAEVKKPGASVKVSCKASGYTLTAYYMNWVRQAPGQSLEWIGVINPYNGDSSYNQKFKGRATLTVDKSTSTAYMELSSLRSEDTAVYYCARDDGYYRWYFDVWGQGTLVTVSS VL: DIQMTQSPSSLSASVGDRVTITCRASQDIGSRLNWLQQKPGKSIKRLIYATSSLESGVPSRFSGSRSGSDYTLTISSLQPEDFATYYCLQSGSSPPTFGQGTKVEIKR
